A short description of the data set: self-splicing fitness, log relative to wild type (ln ratio); higher = more splicing; Tetrahymena group I intron in knt gene, E. coli kanamycin selection, DiMSum; sequences stand for … in CUCUCU…GGAGGGAAAAGUUAUCAGGCAUGCACCUGGUAGCUAGUCUUUAAACCAAUAGAUUGCAUCGGUUUAAAAGGCAAGACCGUCAAAUUGCGGGAAAGGGGUCAACAGCCGUUCAGUACCAAGUCUCAGGGGAAACUUUGAGAUGGCCUUGCAAAGGGUAUGGUAAUAAGCUGACGGACAUGGUCCUAACCACGCAGCCAAGUCCUAAGUCAACAGAUCUUCUGUUGAUAUGGAUGCAGUUCACAGACUAAAUGUCGGUCGGGGAAGAUGUAUUCUUCUCAUAAGAUAUAGUCGGACCUCUCCUUAAUGGGAGCUAGCGGAUGAAGUGAUGCAACACUGGAGCCGCUGGGAACUAAUUUGUAUGCGAAAGUAUAUUGAUUAGUUUUGGAGUACUCGUGGUCG
An outline of the steps: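 Colonies from six replicate transformations of E. coli BL21(DE3) were pooled and amplicon-sequenced on an Illumina HiSeq 2500. The library placed an intron with all eight P1ex-region nucleotides randomised inside the knt kanamycin-resistance gene on pET-22b(+), and cells grew overnight at 37°C or 30°C on LB agar with or without 25 μg/mL kanamycin (plus 100 μg/mL carbenicillin, 50 μM IPTG, 0.2% rhamnose). Fitness is the DiMSum error-weighted combination of wild-type-normalised replicate fold changes, kanamycin versus none.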

± gives the uncertainty stated by the source.

As for AGUAAGCAAUAUUACGACGA, the “self-splicing fitness (ln)” value is, setting by setting: (30 °C) -1.15 ± 0.073; (37 °C) -0.782 ± 0.079.
For AGUAAGCAAUAUUACGAGAU, in that order: -3.09 ± 0.15 and -0.575 ± 0.16.
Consider AGUAAGCAAUAUUACGAGGA, for which the “self-splicing fitness (ln)” value was -2.06 ± 0.33 (30 °C) and -2.55 ± 0.49 (37 °C).
For AGUAAGCAAUAUUACGAUAU, in that order: -1.95 ± 0.13 and -0.493 ± 0.15.
Regarding AGUAAGCAAUAUUACGAUUA, the “self-splicing fitness (ln)” value is -0.948 ± 0.082 (30 °C) and 0.25 ± 0.092 (37 °C).
On to AGUAAGCAAUAUUACGAUUC, for which the “self-splicing fitness (ln)” value (30 °C) was -1.31 ± 0.14 and the “self-splicing fitness (ln)” value (37 °C) is -0.96 ± 0.22.
Regarding AGUAAGCAAUAUUACGCAAU, the “self-splicing fitness (ln)” value runs as follows: (30 °C) -2.52 ± 0.14; (37 °C) -1.17 ± 0.16.
For AGUAAGCAAUAUUACGCACA, in that order: -0.655 ± 0.082 and -0.356 ± 0.091.
For AGUAAGCAAUAUUACGCAGU, in that order: -4.13 ± 0.17 and -2.98 ± 0.19.
For the sequence AGUAAGCAAUAUUACGCGAU, the “self-splicing fitness (ln)” value (30 °C) was -3.74 ± 0.18 and the “self-splicing fitness (ln)” value (37 °C) is -2.29 ± 0.18.
For AGUAAGCAAUAUUACGCGCU the same measures were -2.64 ± 0.28 and -2.1 ± 0.4.
For AGUAAGCAAUAUUACGCGUG the same measures were -3.44 ± 0.2 and -1.46 ± 0.16.
For AGUAAGCAAUAUUACGCGUU, in that order: -3.44 ± 0.17 and -2.8 ± 0.19.
For AGUAAGCAAUAUUACGCUAA, the “self-splicing fitness (ln)” value reads like this: (30 °C) -2.36 ± 0.17; (37 °C) -2.3 ± 0.19.
For AGUAAGCAAUAUUACGGCAU the same measures were -0.486 ± 0.11 and -0.411 ± 0.12.
For AGUAAGCAAUAUUACGGCCA, in that order: -0.532 ± 0.14 and -0.74 ± 0.16.
For AGUAAGCAAUAUUACGGCUA, the “self-splicing fitness (ln)” value came out at 0.0253 ± 0.081 (30 °C) and 0.0684 ± 0.094 (37 °C).
For AGUAAGCAAUAUUACGGGCU the same measures were -1.28 ± 0.12 and -1.6 ± 0.17.
For AGUAAGCAAUAUUACGGGGA the same measures were -3.89 ± 0.31 and -2.3 ± 0.3.
For AGUAAGCAAUAUUACGUAGG, in that order: -3.99 ± 0.19 and -3.09 ± 0.22.
As to AGUAAGCAAUAUUACGUCAG, under “37 °C”, the “self-splicing fitness (ln)” value was -2.58 ± 0.3.
On the same count and under the same terms, for AGUAAGCAAUAUUACGUGAC the value was -2.19 ± 0.2.
Take AGUAAGCAAUAUUACGUUGA: the “self-splicing fitness (ln)” value (30 °C) is -3.1 ± 0.23 and the “self-splicing fitness (ln)” value (37 °C) was -2.1 ± 0.24.
For AGUAAGCAAUAUUACGUUUC the same measures were -3.78 ± 0.23 and -1.37 ± 0.21.
With AGUCAGCAAUAUUACGAAAC, the “self-splicing fitness (ln)” value (37 °C) is -1.45 ± 0.28.
For AGUCAGCAAUAUUACGAAGG, the “self-splicing fitness (ln)” value was -1.27 ± 0.08 (30 °C) and -1.46 ± 0.12 (37 °C).
Regarding AGUCAGCAAUAUUACGAAUA, the “self-splicing fitness (ln)” value reads like this: (30 °C) -0.962 ± 0.2; (37 °C) -1.22 ± 0.17.
Consider AGUCAGCAAUAUUACGACAU, for which the “self-splicing fitness (ln)” value was 0.0908 ± 0.012 (30 °C) and -0.0465 ± 0.032 (37 °C).
For AGUCAGCAAUAUUACGCAAC the same measures were -1.65 ± 0.18 and -1.22 ± 0.21.
For AGUCAGCAAUAUUACGCAGU, in that order: -1.89 ± 0.23 and -0.11 ± 0.17.
For AGUCAGCAAUAUUACGCAUA the same measures were -2.09 ± 0.13 and -0.502 ± 0.12.
With AGUCAGCAAUAUUACGCGAC, the “self-splicing fitness (ln)” value reads like this: (30 °C) -2.59 ± 0.26; (37 °C) -3.14 ± 0.35.
For AGUCAGCAAUAUUACGCGUC the same measures were -2.65 ± 0.23 and -0.977 ± 0.23.
For AGUCAGCAAUAUUACGCUGA the same measures were -2.55 ± 0.19 and -2.24 ± 0.22.
For AGUCAGCAAUAUUACGGAUC, in that order: -0.312 ± 0.11 and -0.438 ± 0.2.
Take AGUCAGCAAUAUUACGGAUU: the “self-splicing fitness (ln)” value is -2.25 ± 0.14 (30 °C) and -1.42 ± 0.11 (37 °C).
For AGUCAGCAAUAUUACGGCUA, in that order: -0.605 ± 0.14 and -0.512 ± 0.13.
Take AGUCAGCAAUAUUACGGGCC: the “self-splicing fitness (ln)” value was -2.98 ± 0.28 (30 °C) and -2.4 ± 0.35 (37 °C).
For AGUCAGCAAUAUUACGGGUG, in that order: -1.82 ± 0.084 and -0.948 ± 0.12.
Regarding AGUCAGCAAUAUUACGGUCG, the “self-splicing fitness (ln)” value by setting is: (30 °C) 0.451 ± 0.089; (37 °C) 0.0344 ± 0.12.
For AGUCAGCAAUAUUACGGUGU the same measures were -1.32 ± 0.075 and -0.39 ± 0.1.
For AGUCAGCAAUAUUACGGUUG the same measures were -2.76 ± 0.12 and -2.8 ± 0.17.
Turning to AGUCAGCAAUAUUACGGUUU, the “self-splicing fitness (ln)” value is -0.329 ± 0.065 (30 °C) and -0.197 ± 0.08 (37 °C).
Consider AGUCAGCAAUAUUACGUGGG, for which the “self-splicing fitness (ln)” value was -4.29 ± 0.21 (30 °C) and -2.44 ± 0.14 (37 °C).
Take AGUCAGCAAUAUUACGUUAA: the “self-splicing fitness (ln)” value is, setting by setting: (30 °C) -3.47 ± 0.18; (37 °C) -1.77 ± 0.12.
For AGUCAGCAAUAUUACGUUGU the same measures were -3.18 ± 0.12 and -2.87 ± 0.18.
For AGUGAGCAAUAUUACGAACA the same measures were -1.77 ± 0.18 and -0.734 ± 0.15.
AGUGAGCAAUAUUACGAACU: the “self-splicing fitness (ln)” value runs as follows: (30 °C) -2.3 ± 0.18; (37 °C) -2.58 ± 0.33.
AGUGAGCAAUAUUACGAAUC: the “self-splicing fitness (ln)” value (37 °C) was -1.49 ± 0.38.
Take AGUGAGCAAUAUUACGACCA: the “self-splicing fitness (ln)” value is -1.79 ± 0.26 (30 °C) and -1.52 ± 0.48 (37 °C).
For AGUGAGCAAUAUUACGACGA the same measures were -2.44 ± 0.21 and -1.13 ± 0.24.
For AGUGAGCAAUAUUACGAGCG, in that order: -0.459 ± 0.1 and -0.0795 ± 0.13.
As for AGUGAGCAAUAUUACGAGGC, the “self-splicing fitness (ln)” value (30 °C) was -3.83 ± 0.33 and the “self-splicing fitness (ln)” value (37 °C) was -1.45 ± 0.17.
For AGUGAGCAAUAUUACGAUUU the same measures were -2.6 ± 0.24 and -1.12 ± 0.22.
As to AGUGAGCAAUAUUACGCACG, the “self-splicing fitness (ln)” value is -1.58 ± 0.18 (30 °C) and -0.941 ± 0.17 (37 °C).
On to AGUGAGCAAUAUUACGCGGA, for which the “self-splicing fitness (ln)” value is -2.28 ± 0.3 (30 °C) and -1.99 ± 0.23 (37 °C).
Consider AGUGAGCAAUAUUACGCGGG, for which the “self-splicing fitness (ln)” value (37 °C) is -2.1 ± 0.37.
For AGUGAGCAAUAUUACGCUGC, the “self-splicing fitness (ln)” value is -2.29 ± 0.46 (30 °C) and -2.44 ± 0.44 (37 °C).
For AGUGAGCAAUAUUACGCUGU the same measures were -3.12 ± 0.25 and -1.64 ± 0.18.
Consider AGUGAGCAAUAUUACGGAUU, for which the “self-splicing fitness (ln)” value runs as follows: (30 °C) -3.48 ± 0.26; (37 °C) -1.28 ± 0.21.
As to AGUGAGCAAUAUUACGGGAC, the “self-splicing fitness (ln)” value (30 °C) is -4.1 ± 0.47.
Regarding AGUGAGCAAUAUUACGGGGA, the “self-splicing fitness (ln)” value is -3.7 ± 0.25 (30 °C) and -2 ± 0.21 (37 °C).
For AGUGAGCAAUAUUACGGGUC, in that order: -3.17 ± 0.28 and -3.06 ± 0.43.
AGUGAGCAAUAUUACGGUUA: the “self-splicing fitness (ln)” value by setting is: (30 °C) -2.29 ± 0.23; (37 °C) -2.48 ± 0.2.
For AGUGAGCAAUAUUACGGUUC, in that order: -2.21 ± 0.26 and -1.7 ± 0.38.
For AGUGAGCAAUAUUACGUCCC, in that order: 0.506 ± 0.48 and 0.283 ± 0.36.
For AGUGAGCAAUAUUACGUCUA the same measures were -2.45 ± 0.27 and -1.41 ± 0.2.
As to AGUGAGCAAUAUUACGUCUC, the “self-splicing fitness (ln)” value (37 °C) is -2.46 ± 0.36.
AGUGAGCAAUAUUACGUGAC: the “self-splicing fitness (ln)” value was -2.02 ± 0.35 (30 °C) and -2.39 ± 0.32 (37 °C).
For AGUUAGCAAUAUUACGACCA, in that order: -0.921 ± 0.093 and -0.258 ± 0.13.
For AGUUAGCAAUAUUACGAGCA, in that order: -0.518 ± 0.11 and -0.169 ± 0.12.
For AGUUAGCAAUAUUACGAUAA, in that order: -2.31 ± 0.21 and -0.658 ± 0.22.
For AGUUAGCAAUAUUACGCACU, the “self-splicing fitness (ln)” value runs as follows: (30 °C) -1.6 ± 0.26; (37 °C) -1.09 ± 0.23.
For AGUUAGCAAUAUUACGCAUG, in that order: -1.91 ± 0.078 and -1.15 ± 0.1.
Regarding AGUUAGCAAUAUUACGCGUG, the “self-splicing fitness (ln)” value by setting is: (30 °C) -2.38 ± 0.2; (37 °C) -0.946 ± 0.17.
Turning to AGUUAGCAAUAUUACGCUGG, where the note is “30 °C”, the “self-splicing fitness (ln)” value is -3.07 ± 0.22.
On to AGUUAGCAAUAUUACGGACC, for which the “self-splicing fitness (ln)” value (30 °C) is -0.357 ± 0.11 and the “self-splicing fitness (ln)” value (37 °C) is -0.279 ± 0.16.
